Laboratory results published in the supplement of paper PMC7125110.
± gives the standard error. For some assays here: This sample holds only a part of the variants without activity.

B1: glmS ribozyme (parent)
chain: AUAAAAGCGCCAGAACUACAGAAAUGUAGUUGACGAGGAGGAGGUUUAUCGAAUUUUCGGCGGAUGCCUCCAAA

Assays:
Settings in all cases: with glucosamine-6-phosphate
[1] = variants of: B1; experiment: kcat; higher = faster cleavage; RNA array
Summary of the method: (§1)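 Tracking of barcoded ribozyme variants used a hybridised Cy3 probe at 37 °C, after in situ transcription by E. coli RNA polymerase on sequenced MiSeq chips. The flowed solution held 40 μM to 10 mM glucosamine-6-phosphate in HEPES/KCl/Mg(OAc)2 buffer, and imaging ran over ~14 h. kobs was taken from exponential decay fits of normalised per-tile medians, and kcat and KM from weighted Michaelis–Menten fits.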

[2] = variants of: B1; experiment: self-cleavage kobs at 2500 uM GlcN6P; higher = faster cleavage; RNA array
Summary of the method: as §1

[3] = variants of: B1; experiment: self-cleavage kobs at 10000 uM GlcN6P; higher = faster cleavage; RNA array
Summary of the method: as §1

[4] = variants of: B1; experiment: self-cleavage kobs at 40 uM GlcN6P; higher = faster cleavage; RNA array
Summary of the method: as §1

[5] = variants of: B1; experiment: self-cleavage kobs at 160 uM GlcN6P; higher = faster cleavage; RNA array
Summary of the method: as §1

[6] = variants of: B1; experiment: self-cleavage kobs at 640 uM GlcN6P; higher = faster cleavage; RNA array
Summary of the method: as §1

[7] = variants of: B1; experiment: KM; higher = weaker cofactor use; RNA array
Summary of the method: as §1

Variant | kcat [1] [s⁻¹] | self-cleavage kobs at 2500 uM GlcN6P [2] [s⁻¹] | self-cleavage kobs at 10000 uM GlcN6P [3] [s⁻¹] | self-cleavage kobs at 40 uM GlcN6P [4] [s⁻¹] | self-cleavage kobs at 160 uM GlcN6P [5] [s⁻¹] | self-cleavage kobs at 640 uM GlcN6P [6] [s⁻¹] | KM [7] [mM]
A52U U55C | 0.000619 ± 0.00011 | 0.000125 ± 3.2e-05 | 0.000288 ± 4.2e-05 | – | – | – | –
C10U G32A | 2.81e-05 ± 1.1e-06 | 2.53e-05 ± 9.9e-06 | 2.81e-05 ± 7.9e-06 | < 1e-05 | – | – | –
A15U G40U | 0.000328 ± 7.5e-05 | 0.000447 ± 6.9e-05 | 0.000273 ± 2.8e-05 | – | 2.65e-05 ± 1.3e-05 | 0.000117 ± 2.2e-05 | –
G13A U45A | 0.00257 ± 0.00041 | 0.000649 ± 0.00012 | 0.00152 ± 0.00022 | – | 5.26e-05 ± 9.7e-06 | 0.000237 ± 3.3e-05 | 6.91 ± 1.4
A15G U54G | 0.0486 ± 0.02 | 0.0243 ± 0.0097 | 0.0509 ± 0.011 | 0.000945 ± 8.8e-05 | 0.00385 ± 0.00091 | 0.00802 ± 0.0015 | 2.2 ± 1
G29U U31C | 0.000449 ± 0.00016 | 0.00015 ± 1.8e-05 | 0.000407 ± 3.7e-05 | – | 4.01e-05 ± 1.3e-05 | 9.18e-05 ± 8.9e-06 | –
U30C U55C | 0.000295 ± 3.2e-05 | 0.000167 ± 2.4e-05 | 0.000281 ± 3.9e-05 | – | 3.54e-05 ± 9.7e-06 | 8.83e-05 ± 8.8e-06 | 1.49 ± 0.29
C58G C67A | 4.68e-05 ± 7.6e-06 | 4.7e-05 ± 1.4e-05 | 3.78e-05 ± 1e-05 | – | – | 6.09e-05 ± 1.3e-05 | –
A52C C70G | 3.19e-05 ± 1.1e-05 | 4.57e-05 ± 1.4e-05 | – | – | – | 3.3e-05 ± 1e-05 | –
A6G A33G | < 1e-05 | – | < 1e-05 | – | – | – | –
G51U C61A | < 1e-05 | – | < 1e-05 | < 1e-05 | < 1e-05 | – | –
A36U C68G | 0.000198 ± 5.7e-05 | – | 0.000121 ± 3.4e-05 | 7.38e-05 ± 1.2e-05 | – | 0.000275 ± 3.5e-05 | –
C8U U31A | < 1e-05 | – | – | – | – | < 1e-05 | –
A12U C16G G40C | 0.000662 ± 7.1e-05 | 0.000322 ± 0.00011 | 0.000481 ± 9.8e-05 | – | – | 9.91e-05 ± 3.2e-05 | 3.49 ± 0.7
U65G C70G | 0.000265 ± 5.4e-05 | 0.000176 ± 1.3e-05 | 0.000228 ± 2.3e-05 | – | 4.76e-05 ± 7.4e-06 | 7.04e-05 ± 6.8e-06 | 1.47 ± 0.6
A12U A15U A39C | 0.000282 ± 8.6e-05 | 0.000199 ± 3.2e-05 | 0.000374 ± 8.8e-05 | – | 6.33e-05 ± 1.3e-05 | 9.89e-05 ± 1.6e-05 | –
U45A C67U | 0.0622 ± 0.028 | 0.033 ± 0.01 | 0.0465 ± 0.014 | 0.00106 ± 0.00014 | 0.00246 ± 0.00047 | 0.0118 ± 0.0023 | –
U45G A52G | 0.000403 ± 0.0001 | 0.000142 ± 3.2e-05 | 0.000345 ± 6e-05 | – | – | 8.01e-05 ± 1.6e-05 | 3.1 ± 1.4

Variant | kcat [1] [s⁻¹] | self-cleavage kobs at 2500 uM GlcN6P [2] [s⁻¹] | self-cleavage kobs at 10000 uM GlcN6P [3] [s⁻¹] | self-cleavage kobs at 40 uM GlcN6P [4] [s⁻¹] | self-cleavage kobs at 160 uM GlcN6P [5] [s⁻¹] | self-cleavage kobs at 640 uM GlcN6P [6] [s⁻¹] | KM [7] [mM]
G62A | < 1e-05 | – | < 1e-05 | < 1e-05 | – | – | –
A14C G32C | 0.000467 ± 2.4e-05 | 0.000149 ± 2.1e-05 | 0.000304 ± 3.5e-05 | – | – | 4.87e-05 ± 1.2e-05 | 5.35 ± 0.48
A52U U69G | 2.57e-05 ± 7.6e-06 | 2.11e-05 ± 7.8e-06 | – | – | 4.23e-05 ± 1.1e-05 | 3.97e-05 ± 1e-05 | –
A14U A64U G66C | 1.84e-05 ± 4.5e-06 | – | – | – | – | – | –
C68G C70A | < 1e-05 | – | < 1e-05 | < 1e-05 | – | – | –
C10A C50A | 2e-05 ± 5.5e-06 | – | – | – | – | – | –
A39G U65A | 0.0108 ± 0.0047 | 0.00741 ± 0.0031 | 0.00966 ± 0.0034 | 0.000266 ± 6.6e-05 | – | 0.00201 ± 0.00056 | –
C11A U56G | 0.00015 ± 3.9e-05 | 7.76e-05 ± 1.1e-05 | 0.000155 ± 1.9e-05 | – | – | 6.35e-05 ± 1.2e-05 | –
U46G A52G | 0.00059 ± 3.1e-05 | 0.000185 ± 9.1e-05 | 0.00036 ± 4.6e-05 | – | – | 5.26e-05 ± 1.6e-05 | 6.37 ± 0.65
A36U U47G G51U | < 1e-05 | – | < 1e-05 | – | – | – | –
C8G U57A C70A | 5.04e-05 ± 1.1e-05 | – | – | – | – | – | –
U30G U65A | 0.00108 ± 0.00019 | 0.000483 ± 0.00014 | 0.000797 ± 0.0001 | 3.04e-05 ± 1.2e-05 | – | 0.000157 ± 2.9e-05 | 3.5 ± 1.1
A12U G43U | 0.000148 ± 3e-05 | 0.000134 ± 2.2e-05 | 0.00012 ± 1.2e-05 | – | – | 2.86e-05 ± 1.1e-05 | –
U31G G59U | 3.05e-05 ± 9.5e-07 | – | 2.88e-05 ± 1e-05 | – | – | – | 0.511 ± 0.16
A6U A12C | 0.000271 ± 9.3e-05 | 0.000111 ± 3.2e-05 | 0.000168 ± 2.9e-05 | – | – | – | –
A14C A53C | 0.00124 ± 0.00016 | 0.000659 ± 7.9e-05 | 0.000924 ± 0.00013 | 2.58e-05 ± 1.2e-05 | 6.39e-05 ± 1e-05 | 0.000267 ± 3.4e-05 | 2.55 ± 0.49
U49G C67G | 8.59e-05 ± 1e-05 | 4.61e-05 ± 8.8e-06 | 7.87e-05 ± 6.7e-06 | – | – | 3.79e-05 ± 1e-05 | –
